Assay results from the supplement of paper PMC9732359.
± gives the uncertainty stated by the source.

Assay: protein stability index of a GFP-peptide fusion (yeast GPS) (PSI 1-4); higher = more stable; sorted into four equal gates, so the index is relative within each strain
Outline: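 Mid-log yeast cultures in leucine-free medium, carrying a pooled plasmid library, were sorted into four equal gates by their GFP/Cherry fluorescence ratio. Each plasmid expressed Cherry along with GFP fused upstream of a tiled 17-residue yeast protein peptide. Plasmids recovered from each gate were PCR-amplified and Illumina-sequenced, with reads assigned to strains by barcodes. The protein stability index was obtained by summing each gate's read frequency weighted by its gate number.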

Row | Sequence | protein stability index (pdr5∆) | protein stability index (san1∆) | protein stability index (ubr1∆) | protein stability index (doa10∆)
1 | IDEIDAIGTKRYDSNSG [RPT2] | 2.26 ± 0.14 | 2.36 ± 0.087 | 2.92 ± 0.19 | 
2 | IDGKTVSYKDYSIFLEN [SMC1] | 3.07 ± 0.057 | 2.85 ± 0.061 | 2.89 ± 0.046 | 2.72 ± 0.062
3 | IDGKVIQAGKFDNKSTS [SNF2] | 1.42 ± 0.064 | 1.9 ± 0.21 | 1.95 ± 0.089 | 1.36 ± 0.057
4 | IDIINKLILHAIHIFES [YML103C/NUP188] | 1.56 ± 0.058 | 1.42 ± 0.065 | 1.38 ± 0.034 | 1.5 ± 0.053
5 | IDKLMLSPSDQFAPAFL [SSN2] | 2.24 ± 0.1 | 2.1 ± 0.13 | 2.5 ± 0.09 | 1.99 ± 0.068
6 | IDMGEDKENVPVEKVKE [DPB4] | 3.45 ± 0.14 | 3.29 ± 0.21 | 3.67 ± 0.13 | 3.41 ± 0.23
7 | IDPSVTMMTVEEKPDVT [RPT1] | 2.58 ± 0.059 | 1.93 ± 0.13 | 2.38 ± 0.05 | 2.62 ± 0.097
8 | IDQDIHGIVFQHPFPLA [SSN2] | 2.25 ± 0.051 | 2.24 ± 0.059 | 2.64 ± 0.032 | 2.13 ± 0.044
9 | IDQVMMSVSDNDQALIK [RET1] | 3.06 ± 0.066 | 3.13 ± 0.048 | 3.01 ± 0.051 | 2.9 ± 0.054
10 | IDRNLKCQTCQEGMNEC [RPO21] | 1.38 ± 0.061 | 2.56 ± 0.079 | 2.37 ± 0.079 | 2.48 ± 0.086
11 | IDRNSTILYLNVFHGLC [IRR1] | 1.52 ± 0.084 | 2.14 ± 0.25 | 2.78 ± 0.17 | 2.41 ± 0.14
12 | IDRPKHELSRAELEELE [SMD2] | 3.27 ± 0.15 | 3.32 ± 0.07 | 3.38 ± 0.1 | 3.27 ± 0.083
13 | IDTSKNLENMSIQDTST [YCG1] | 2.94 ± 0.041 | 2.71 ± 0.044 | 2.68 ± 0.041 | 2.79 ± 0.046
14 | IEDLRADINSNRLSNPQ [YOR098C/NUP1] | 2.8 ± 0.076 | 2.72 ± 0.06 | 2.93 ± 0.061 | 2.64 ± 0.09
15 | IEEAKSIRRQDYINELS [REC8] | 3.11 ± 0.22 | 3.39 ± 0.16 | 3.14 ± 0.17 | 
16 | IEEEIFDDSSRIVNHKT [LIN1] | 2.91 ± 0.1 | 3.11 ± 0.072 | 2.97 ± 0.071 | 3.14 ± 0.083
17 | IEFEYDPWNKLKHTDYW [RPB3] | 2.69 ± 0.17 | 2.81 ± 0.089 | 3.06 ± 0.089 | 2.85 ± 0.1
18 | IEILVKDNECSSFEENN [RRI2] | 3.02 ± 0.13 | 2.89 ± 0.12 | 3.33 ± 0.12 | 2.86 ± 0.13
19 | IELSDGSTFKVNQEFIF [YJL039C/NUP192] | 3.07 ± 0.059 | 2.78 ± 0.061 | 3.13 ± 0.064 | 3.23 ± 0.088
20 | IEMKDVSSKPSKPESSV [MED1] | 3.33 ± 0.11 | 2.89 ± 0.076 | 3.25 ± 0.064 | 3.15 ± 0.12
21 | IEMYVQEASKQYTKDEQ [RPN2] | 3.16 ± 0.091 | 3.06 ± 0.057 | 3.31 ± 0.069 | 3.3 ± 0.084
22 | IENMTKEKVSNGGVGVD [FAS2] | 3.16 ± 0.1 | 3.33 ± 0.087 | 3.11 ± 0.063 | 3.23 ± 0.088
23 | IEPVTKVSSLKMFIQRI [YCS4] | 2.9 ± 0.065 | 3.17 ± 0.048 | 3.31 ± 0.065 | 2.91 ± 0.064
24 | IEQFAMRRNSKILNIIK [POP5] | 2.88 ± 0.077 | 2.86 ± 0.076 | 3.23 ± 0.07 | 3.08 ± 0.084
25 | IETIGHLITKEEIMHGL [RPN5] | 3.31 ± 0.14 | 3.13 ± 0.079 | 2.97 ± 0.067 | 2.82 ± 0.089
26 | IEYCSAQPSVQSSFAGT [FAS2] | 3.07 ± 0.094 | 2.77 ± 0.073 | 2.56 ± 0.059 | 2.72 ± 0.11

Row | Sequence | protein stability index (pdr5∆) | protein stability index (san1∆) | protein stability index (ubr1∆) | protein stability index (doa10∆)
27 | IFINYKQTADWLAEKFQ [PRP28] | 1.93 ± 0.06 | 2.37 ± 0.072 | 2.36 ± 0.06 | 1.7 ± 0.049
28 | IFNGETLEDALRRIITD [GRR1] | 1.96 ± 0.059 | 2.07 ± 0.07 | 2.07 ± 0.064 | 1.96 ± 0.084
29 | IFSQMSRLLDILEDYCY [ISW2] | 2.8 ± 0.094 | 2.03 ± 0.11 | 3.01 ± 0.092 | 1.66 ± 0.048
30 | IFSQTTNSTYNPASATD [YJL039C/NUP192] | 2.69 ± 0.071 | 2.46 ± 0.054 | 2.63 ± 0.046 | 2.83 ± 0.054
31 | IFTEKIYKSIFNVVDVG [YJL039C/NUP192] | 1.71 ± 0.072 | 1.72 ± 0.14 | 1.33 ± 0.065 | 1.99 ± 0.07
32 | IGAAELNENARELEQIK [SNF12] | 3.18 ± 0.067 | 2.84 ± 0.12 | 3.33 ± 0.05 | 3.18 ± 0.081
33 | IGHLITKEEIMHGLQAK [RPN5] | 2.96 ± 0.091 | 2.94 ± 0.065 | 3.01 ± 0.067 | 2.91 ± 0.087
34 | IGNLITRQFEGRSNEIV [PRP8] | 3.29 ± 0.087 | 3 ± 0.058 | 2.7 ± 0.074 | 3.05 ± 0.075
35 | IGTANYKPLIEERMGQI [SMC4] | 3.53 ± 0.087 | 3.37 ± 0.059 | 3.27 ± 0.063 | 3.1 ± 0.087
36 | IHGELKTYKEGINKNEE [SMC1] | 3.09 ± 0.051 | 2.87 ± 0.055 | 3.01 ± 0.046 | 2.94 ± 0.075
37 | IHKIQNDNNLKKLESQE [RPN5] | 3 ± 0.17 | 2.85 ± 0.11 |  | 3.08 ± 0.2
38 | IHSLVKQRLDLARQVKL [YIL149C/MLP2] | 2.6 ± 0.061 | 3.03 ± 0.064 | 2.83 ± 0.047 | 2.69 ± 0.064
39 | IIAELSFLKVDPDLGLD [YJL039C/NUP192] | 3.26 ± 0.086 | 3.23 ± 0.1 | 3 ± 0.095 | 3.35 ± 0.091
40 | IIASASYDKTVKLWEED [YGL100W/SEH1] | 3.67 ± 0.25 | 3.22 ± 0.093 | 3.41 ± 0.12 | 3.3 ± 0.18
41 | IIDEIITQMRVNDEEEH [RPC82] | 2.54 ± 0.071 | 3.54 ± 0.12 | 2.19 ± 0.079 | 3 ± 0.084
42 | IIFASTKLGFTFTIKEF [SNU114] | 2.44 ± 0.059 | 1.83 ± 0.074 | 2.56 ± 0.066 | 2.37 ± 0.078
43 | IIKLVEGLANDPENKVP [RPS12] | 1.77 ± 0.065 | 2.25 ± 0.092 | 2.08 ± 0.09 | 2.01 ± 0.086
44 | IILGTNLYDGAEHKYMP [BRR2] | 3.47 ± 0.096 | 3.6 ± 0.087 | 3.27 ± 0.1 | 3.06 ± 0.12
45 | IIMFVGLQGSGKTTSCT [SRP54] | 3.04 ± 0.054 | 3.13 ± 0.064 | 3.13 ± 0.046 | 2.8 ± 0.067
46 | IINSTALMKEKDIRSTL [RPC82] | 3 ± 0.099 | 2.97 ± 0.093 | 3.25 ± 0.09 | 3.12 ± 0.19
47 | IIPQDILDCVVTNSMRQ [YJR042W/NUP85] | 3.15 ± 0.072 | 3.35 ± 0.044 | 2.94 ± 0.063 | 3.01 ± 0.069
48 | IIRHEKELEPWDLQLQE [SMC4] | 2.82 ± 0.13 |  | 3.47 ± 0.16 | 3.28 ± 0.15
49 | IITSGRDTREVLEERER [ARP9] | 3.36 ± 0.14 | 3.52 ± 0.065 | 3.52 ± 0.1 | 3.41 ± 0.16
50 | IIVPDLIELKSDLLVAP [YML103C/NUP188] | 1.8 ± 0.056 | 1.95 ± 0.094 | 1.69 ± 0.059 | 1.65 ± 0.052
51 | IKDSVREVGTKFTTVLA [ECM29] | 2.6 ± 0.07 | 2.22 ± 0.078 | 2.42 ± 0.05 | 2.77 ± 0.084
